The text below walks through data of publication PMC4012986, “The Dimerization Domain in DapE Enzymes Is required for Catalysis” (PLoS ONE, 2014).

By Km is commonly meant the concentration of substrate that gives half-maximal velocity. A word on the kcat: it is the maximal rate divided by the concentration of active sites.

For data set [1], the system named is N[C@@H](CCC[C@H](NC(=O)CCC(=O)O)C(=O)O)C(=O)O. The data set can be described thus: purified protein. Conditions: 50 mM phosphate pH 7.5, 25 °C, two equivalents Zn(II).
Substrate in data set [2]: N[C@@H](CCC[C@H](NC(=O)CCC(=O)O)C(=O)O)C(=O)O
Description: purified protein. The conditions noted are these: 50 mM phosphate pH 7.5, 25 °C, two equivalents Zn(II). The source holds these as a separate data set.

Data set [3] concerns the molecule itself. The data set can be described thus: dynamic light scattering; DynaPro-801, 21°C; 2.0 mg/ml in crystallization buffer (250 mM NaCl, 20 mM HEPES pH 8.0, 1 mM TCEP).

For the molecule “WT-VcDapE (Vibrio cholerae O1 biovar El Tor str. N16961)”, in data set [1], the Km came to 1200 ± 200 µM and the kcat is 80 ± 10 s⁻¹.

B1: N-succinyl-L,L-diaminopimelic acid desuccinylase (DapE) from Haemophilus influenzae, wild type, full length (enzyme)
chain: MKEKVVSLAQDLIRRPSISPNDEGCQQIIAERLEKLGFQIEWMPFNDTLNLWAKHGTSEPVIAFAGHTDVVPTGDENQWSSPPFSAEIIDGMLYGRGAADMKGSLAAMIVAAEEYVKANPNHKGTIALLITSDEEATAKDGTIHVVETLMARDEKITYCMVGEPSSAKNLGDVVKNGRRGSITGNLYIQGIQGHVAYPHLAENPIHKAALFLQELTTYQWDKGNEFFPPTSLQIANIHAGTGSNNVIPAELYIQFNLRYCTEVTDEIIKQKVAEMLEKHNLKYRIEWNLSGKPFLTKPGKLLDSITSAIEETIGITPKAETGGGTSDGRFIALMGAEVVEFGPLNSTIHKVNECVSVEDLGKCGEIYHKMLVNLLDS
notes: also called HiDapE; WT-HiDapE; source: E. coli BL21(DE3) derivative with pMAGIC; purification of the wild type not described
B1: in data set [2], the Km is 800 ± 100 µM and the kcat worked out at 114 ± 10 s⁻¹. The binding result in data set [3] is “binds”.
